Test results: patent publication US20210388087A1 (Chugai, published 2021)
Positions count from the first letter of the chain named. Names and notes keep the numbering of the source.

T1: Human CD3eg linker (human)
T1 construct: Single chain: epsilon and gamma subunits of human CD3 joined by a 29-mer linker, Flag-tag at the C-terminus; also called recombinant human CD3
T1 chain: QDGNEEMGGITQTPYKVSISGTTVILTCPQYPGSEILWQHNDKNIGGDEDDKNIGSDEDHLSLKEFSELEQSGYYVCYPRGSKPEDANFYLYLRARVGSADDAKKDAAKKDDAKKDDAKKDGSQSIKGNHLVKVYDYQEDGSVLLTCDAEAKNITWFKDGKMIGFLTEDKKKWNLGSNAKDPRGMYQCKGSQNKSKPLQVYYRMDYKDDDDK

B1: H183/L072 VH W33I (antibody, name in Kabat numbering, V domains shown)
VH: QVQLVESGGGLVQPGRSLRLSCAASGFTFSNAIMHWVRQAPGKGLEWVAQIKDKGNAYAAYYAPSVKGRFTISRDDSKNSIYLQMNSLKTEDTAVYYCHYVHYASASTVLPAFGVDAWGQGTTVTVSS
VL: DIVMTQSPLSLPVTPGEPASISCQASQELVHMNRNTYLHWYQQKPGQAPRLLIYKVSNRFPGVPDRFSGSGSGTDFTLKISRVEAEDVGVYYCAQGTSVPFTFGQGTKLEIK
B2: H183/L072 VH Y55T (antibody, name in Kabat numbering, V domains shown)
VH: B1 VH with I33W, Y58T
VL: B1 VL
B3: H183/L072 VH Y55H (antibody, name in Kabat numbering, V domains shown)
VH: B1 VH with I33W, Y58H
VL: B1 VL
B4: H183/L072 VH Y55S (antibody, name in Kabat numbering, V domains shown)
VH: B1 VH with I33W, Y58S
VL: B1 VL
B5: H183/L072 VH Y55F (antibody, name in Kabat numbering, V domains shown)
VH: B1 VH with I33W, Y58F
VL: B1 VL
B6: H183/L072 VH Y55W (antibody, name in Kabat numbering, V domains shown)
VH: B1 VH with I33W, Y58W
VL: B1 VL
B7: H183/L072 VH Y55A (antibody, name in Kabat numbering, V domains shown)
VH: B1 VH with I33W, Y58A
VL: B1 VL
B8: H183/L072 VH Y55Q (antibody, name in Kabat numbering, V domains shown)
VH: B1 VH with I33W, Y58Q
VL: B1 VL
B9: H183/L072 VH W33P (antibody, name in Kabat numbering, V domains shown)
VH: B1 VH with I33P
VL: B1 VL
B10: H183/L072 VH Y55I (antibody, name in Kabat numbering, V domains shown)
VH: B1 VH with I33W, Y58I
VL: B1 VL
B11: H183/L072 VH W33S (antibody, name in Kabat numbering, V domains shown)
VH: B1 VH with I33S
VL: B1 VL
B12: H183/L072 VH Y55D (antibody, name in Kabat numbering, V domains shown)
VH: B1 VH with I33W, Y58D
VL: B1 VL
B13: H183/L072 VH Y58H (antibody, name in Kabat numbering, V domains shown)
VH: B1 VH with I33W, Y61H
VL: B1 VL
B14: H183/L072 VH Y55V (antibody, name in Kabat numbering, V domains shown)
VH: B1 VH with I33W, Y58V
VL: B1 VL
B15: H183/L072 VH Y55G (antibody, name in Kabat numbering, V domains shown)
VH: B1 VH with I33W, Y58G
VL: B1 VL
B16: H183/L072 VH Y58M (antibody, name in Kabat numbering, V domains shown)
VH: B1 VH with I33W, Y61M
VL: B1 VL
B17: H183/L072 VH Y58A (antibody, name in Kabat numbering, V domains shown)
VH: B1 VH with I33W, Y61A
VL: B1 VL
B18: H183/L072 VH Y55R (antibody, name in Kabat numbering, V domains shown)
VH: B1 VH with I33W, Y58R
VL: B1 VL
B19: H183/L072 VH W33T (antibody, name in Kabat numbering, V domains shown)
VH: B1 VH with I33T
VL: B1 VL
B20: H183/L072 VH Y58Q (antibody, name in Kabat numbering, V domains shown)
VH: B1 VH with I33W, Y61Q
VL: B1 VL
B21: H183/L072 VH Y58F (antibody, name in Kabat numbering, V domains shown)
VH: B1 VH with I33W, Y61F
VL: B1 VL
B22: H183/L072 VH Y55K (antibody, name in Kabat numbering, V domains shown)
VH: B1 VH with I33W, Y58K
VL: B1 VL
B23: H183/L072 VH W33R (antibody, name in Kabat numbering, V domains shown)
VH: B1 VH with I33R
VL: B1 VL
B24: H183/L072 VH Y55P (antibody, name in Kabat numbering, V domains shown)
VH: B1 VH with I33W, Y58P
VL: B1 VL
B25: H183/L072 VH W33V (antibody, name in Kabat numbering, V domains shown)
VH: B1 VH with I33V
VL: B1 VL
B26: H183/L072 VH Y58D (antibody, name in Kabat numbering, V domains shown)
VH: B1 VH with I33W, Y61D
VL: B1 VL
B27: H183/L072 VH W33Y (antibody, name in Kabat numbering, V domains shown)
VH: B1 VH with I33Y
VL: B1 VL
B28: H183/L072 VH W33Q (antibody, name in Kabat numbering, V domains shown)
VH: B1 VH with I33Q
VL: B1 VL
B29: H183/L072 VH W33N (antibody, name in Kabat numbering, V domains shown)
VH: B1 VH with I33N
VL: B1 VL
B30: H183/L072 VH Y58K (antibody, name in Kabat numbering, V domains shown)
VH: B1 VH with I33W, Y61K
VL: B1 VL
B31: H183/L072 VH Y55M (antibody, name in Kabat numbering, V domains shown)
VH: B1 VH with I33W, Y58M
VL: B1 VL
B32: H183/L072 VH Y58L (antibody, name in Kabat numbering, V domains shown)
VH: B1 VH with I33W, Y61L
VL: B1 VL
B33: H183/L072 VH W33L (antibody, name in Kabat numbering, V domains shown)
VH: B1 VH with I33L
VL: B1 VL
B34: H183/L072 VH W33K (antibody, name in Kabat numbering, V domains shown)
VH: B1 VH with I33K
VL: B1 VL
B35: H183/L072 VH Y55L (antibody, name in Kabat numbering, V domains shown)
VH: B1 VH with I33W, Y58L
VL: B1 VL
B36: H183/L072 VH W33M (antibody, name in Kabat numbering, V domains shown)
VH: B1 VH with I33M
VL: B1 VL
B37: H183/L072 VH Y55N (antibody, name in Kabat numbering, V domains shown)
VH: B1 VH with I33W, Y58N
VL: B1 VL
B38: H183/L072 VH Y58P (antibody, name in Kabat numbering, V domains shown)
VH: B1 VH with I33W, Y61P
VL: B1 VL
B39: H183/L072 VH Y58R (antibody, name in Kabat numbering, V domains shown)
VH: B1 VH with I33W, Y61R
VL: B1 VL
B40: H183/L072 VH Y58S (antibody, name in Kabat numbering, V domains shown)
VH: B1 VH with I33W, Y61S
VL: B1 VL
B41: H183/L072 VH Y58I (antibody, name in Kabat numbering, V domains shown)
VH: B1 VH with I33W, Y61I
VL: B1 VL
B42: H183/L072 VH Y58E (antibody, name in Kabat numbering, V domains shown)
VH: B1 VH with I33W, Y61E
VL: B1 VL
B43: H183/L072 VH Y58G (antibody, name in Kabat numbering, V domains shown)
VH: B1 VH with I33W, Y61G
VL: B1 VL
B44: H183/L072 VH Y58N (antibody, name in Kabat numbering, V domains shown)
VH: B1 VH with I33W, Y61N
VL: B1 VL
B45: H183/L072 VH Y55E (antibody, name in Kabat numbering, V domains shown)
VH: B1 VH with I33W, Y58E
VL: B1 VL

Target: T1, Human CD3eg linker
Assay: Biacore SPR, vs template H183/L072

| fold change of affinity | Binder |
| --- | --- |
| 0 fold | B1 |
| 0 fold | B2 |
| 0.7 fold | B3 |
| 0 fold | B4 |
| 0.8 fold | B5 |
| 0.5 fold | B6 |
| 0.4 fold | B7 |
| 0.5 fold | B8 |
| 0 fold | B9 |
| 0 fold | B10 |
| 0 fold | B11 |
| 0.4 fold | B12 |
| 0.6 fold | B13 |
| 0.3 fold | B14 |
| 0.6 fold | B15 |
| 0.4 fold | B16 |
| 0.6 fold | B17 |
| 0.4 fold | B18 |
| 0 fold | B19 |
| 0.3 fold | B20 |
| 1.4 fold | B21 |
| 0.4 fold | B22 |
| 0 fold | B23 |

| fold change of affinity | Binder |
| --- | --- |
| 0 fold | B24 |
| 0 fold | B25 |
| 0 fold | B26 |
| 0.1 fold | B27 |
| 0 fold | B28 |
| 0 fold | B29 |
| 0.6 fold | B30 |
| 0.6 fold | B31 |
| 0.4 fold | B32 |
| 0 fold | B33 |
| 0 fold | B34 |
| 0.5 fold | B35 |
| 0 fold | B36 |
| 0.7 fold | B37 |
| 0.5 fold | B38 |
| 0.5 fold | B39 |
| 0.4 fold | B40 |
| 0.3 fold | B41 |
| 0.2 fold | B42 |
| 0.3 fold | B43 |
| 0.5 fold | B44 |
| 0.6 fold | B45 |
